Measured values as given in IntAct's records for PubMed 21565615.

B1: Protein c-Fos (Mus musculus), P01101 (parent)
chain: MMFSGFNADYEASSSRCSSASPAGDSLSYYHSPADSFSSMGSPVNTQDFCADLSVSSANFIPTVTAISTSPDLQWLVQPTLVSSVAPSQTRAPHPYGLPTQSAGAYARAGMVKTVSGGRAQSIGRRGKVEQLSPEEEEKRRIRRERNKMAAAKCRNRRRELTDTLQAETDQLEDEKSALQTEIANLLKEKEKLEFILAAHRPACKIPDDLGFPEEMSVASLDLTGGLPEASTPESEEAFTLPLLNDPEPKPSLEPVKSISNVELKAEPFDDFLFPASSRPSGSETSRSVPDVDLSGSFYAADWEPLHSNSLGMGPMVTELEPLCTPVVTCTPGCTTYTSSFVFTYPEADSFPSCAAAHRKGSSSNEPSSDSLSSPTLLAL

Variants of: B1
Conditions: with esr2_mouse Esr2, O08537
Chain of esr2_mouse Esr2, O08537 (O08537 whole entry): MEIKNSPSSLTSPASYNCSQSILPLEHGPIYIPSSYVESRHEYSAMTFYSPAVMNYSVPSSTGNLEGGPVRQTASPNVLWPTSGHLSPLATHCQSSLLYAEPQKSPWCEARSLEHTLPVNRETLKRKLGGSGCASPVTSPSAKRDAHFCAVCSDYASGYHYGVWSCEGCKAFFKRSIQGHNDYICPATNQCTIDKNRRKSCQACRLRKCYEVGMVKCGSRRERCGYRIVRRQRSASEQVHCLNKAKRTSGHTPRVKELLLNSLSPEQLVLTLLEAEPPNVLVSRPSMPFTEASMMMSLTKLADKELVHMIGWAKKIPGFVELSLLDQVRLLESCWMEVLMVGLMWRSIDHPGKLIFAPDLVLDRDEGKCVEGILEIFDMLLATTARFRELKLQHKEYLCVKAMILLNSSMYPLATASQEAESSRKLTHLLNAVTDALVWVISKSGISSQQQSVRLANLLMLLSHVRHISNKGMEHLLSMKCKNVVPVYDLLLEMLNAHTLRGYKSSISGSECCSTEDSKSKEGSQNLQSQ
For MMFSGFNADYEASSSRCSSASPAGDSLSYYHSPADSFSSMGSPVNTQDFCADLSVSSANFIPTVTAISTSPDLQWLVQPTLVSSVAPSQTRAPHPYGLPTQSAGAYARAGMVKTVSGGRAQSIGRRGKVEQLSPEEEEKRRIRRERNKMAAAKCRNRRRELTDTLQAETDQLEDEKSALQTEIANLLKEKEKLEFILAAHRPACKIPDDLGFPEEMSVASLDLTGGLPEASTPESEEAFTLPLLNDPEPKPSLEPVKSISNVELKAEPFDDFLFPASSRPSGSETSRSVPDVDLSGSFYAADWEPLHSNSLGMGPMVTELEPLCTPVVTCTPGCTTYTSSFVFTYPEADSFPSCAAAHRKGASSNEPSSDSLSSPTLLAL [S362A], the “effect of a mutation on the interaction” value was “decreasing interaction”.
With MMFSGFNADYEASSSRCSSASPAGDSLSYYHSPADSFSSMGSPVNTQDFCADLSVSSANFIPTVTAISTSPDLQWLVQPTLVSSVAPSQTRAPHPYGLPTQSAGAYARAGMVKTVSGGRAQSIGRRGKVEQLSPEEEEKRRIRRERNKMAAAKCRNRRRELTDTLQAETDQLEDEKSALQTEIANLLKEKEKLEFILAAHRPACKIPDDLGFPEEMSVASLDLTGGLPEASTPESEEAFTLPLLNDPEPKPSLEPVKSISNVELKAEPFDDFLFPASSRPSGSETSRSVPDVDLSGSFYAADWEPLHSNSLGMGPMVTELEPLCTPVVTCTPGCTTYTSSFVFTYPEADSFPSCAAAHRKGESSNEPSSDSLSSPTLLAL [S362E] the “effect of a mutation on the interaction” value was “increasing interaction”.
